Experiment [1] has as its target T1, human complement C2 in normal human serum (human, UniProt P06681 21-752).
T1 sequence: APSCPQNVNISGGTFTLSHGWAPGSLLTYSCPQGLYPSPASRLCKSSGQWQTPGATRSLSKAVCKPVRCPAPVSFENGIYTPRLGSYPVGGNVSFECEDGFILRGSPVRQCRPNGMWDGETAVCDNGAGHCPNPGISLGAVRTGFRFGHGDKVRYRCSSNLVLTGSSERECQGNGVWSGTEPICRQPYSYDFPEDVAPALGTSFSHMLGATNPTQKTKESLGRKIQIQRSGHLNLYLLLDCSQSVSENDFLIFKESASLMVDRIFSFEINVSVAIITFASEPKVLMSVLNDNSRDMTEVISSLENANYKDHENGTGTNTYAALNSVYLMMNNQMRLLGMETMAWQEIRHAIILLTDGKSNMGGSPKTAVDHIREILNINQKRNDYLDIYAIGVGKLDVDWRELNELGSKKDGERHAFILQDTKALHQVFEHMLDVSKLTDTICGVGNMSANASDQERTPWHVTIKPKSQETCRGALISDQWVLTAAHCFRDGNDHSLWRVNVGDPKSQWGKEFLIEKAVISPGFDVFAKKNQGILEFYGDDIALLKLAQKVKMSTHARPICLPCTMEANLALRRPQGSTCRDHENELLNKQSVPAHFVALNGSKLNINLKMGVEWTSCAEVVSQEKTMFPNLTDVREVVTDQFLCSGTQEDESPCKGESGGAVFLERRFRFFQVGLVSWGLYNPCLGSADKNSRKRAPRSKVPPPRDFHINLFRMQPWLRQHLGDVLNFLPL
Nature of the experiment: cell-based or functional assay.

The target of experiment [2] is T2, recombinant human complement C2 (NP_000054.2), C-terminal 6His-tag, made in house (CHO cell expression) (human, UniProt P06681 21-752).
T2 construct: a linker before the tag is not described; also called human C2; Human C2
T2 sequence: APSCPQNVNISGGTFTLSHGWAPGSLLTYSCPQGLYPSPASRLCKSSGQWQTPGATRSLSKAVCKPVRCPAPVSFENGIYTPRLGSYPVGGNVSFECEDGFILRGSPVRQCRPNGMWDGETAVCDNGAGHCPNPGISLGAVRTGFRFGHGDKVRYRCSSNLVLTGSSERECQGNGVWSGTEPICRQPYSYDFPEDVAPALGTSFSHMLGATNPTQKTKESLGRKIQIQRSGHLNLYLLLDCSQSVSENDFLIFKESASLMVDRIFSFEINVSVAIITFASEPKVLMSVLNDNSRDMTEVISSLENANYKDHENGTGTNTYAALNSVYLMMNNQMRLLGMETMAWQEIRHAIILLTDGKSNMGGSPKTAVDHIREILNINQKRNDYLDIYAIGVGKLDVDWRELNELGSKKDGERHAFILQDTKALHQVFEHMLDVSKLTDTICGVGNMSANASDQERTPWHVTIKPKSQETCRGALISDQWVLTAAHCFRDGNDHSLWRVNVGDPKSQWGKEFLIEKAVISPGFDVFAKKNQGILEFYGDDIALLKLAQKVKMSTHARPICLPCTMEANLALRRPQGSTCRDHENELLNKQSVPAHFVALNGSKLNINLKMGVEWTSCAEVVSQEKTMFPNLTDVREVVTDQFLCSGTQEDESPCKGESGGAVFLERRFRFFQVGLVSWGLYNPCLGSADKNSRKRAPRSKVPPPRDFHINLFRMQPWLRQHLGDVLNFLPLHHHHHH
Nature of the experiment: BLI (Gator), antibody on probe; 600 s association at pH 7.4, 600 s dissociation at pH 5.8. As to the method:
(§1) The histidine mutant constructs in Table 4 were tested for their pH-dependent dissociation from human C2. Probe-immobilized anti-C2 antibodies were incubated with C2 at pH 7.4 for 600s, followed by a 600s dissociation period in K Buffer at pH 7.4 or pH 5.8. The data were processed and analyzed by the Gator evaluation software.
(§2) Non-fusion mAb were used for comparison.

Experiment [3] deals with T3, recombinant cynomolgus (cyno) complement C2 (XP_005553508.1), C-terminal 6His-tag, made in house (CHO cell … (cynomolgus monkey (Macaca fascicularis), UniProt P06681 21-752 (human entry))).
T3 construct: also called cyno C2; Cyno C2
T3 chain: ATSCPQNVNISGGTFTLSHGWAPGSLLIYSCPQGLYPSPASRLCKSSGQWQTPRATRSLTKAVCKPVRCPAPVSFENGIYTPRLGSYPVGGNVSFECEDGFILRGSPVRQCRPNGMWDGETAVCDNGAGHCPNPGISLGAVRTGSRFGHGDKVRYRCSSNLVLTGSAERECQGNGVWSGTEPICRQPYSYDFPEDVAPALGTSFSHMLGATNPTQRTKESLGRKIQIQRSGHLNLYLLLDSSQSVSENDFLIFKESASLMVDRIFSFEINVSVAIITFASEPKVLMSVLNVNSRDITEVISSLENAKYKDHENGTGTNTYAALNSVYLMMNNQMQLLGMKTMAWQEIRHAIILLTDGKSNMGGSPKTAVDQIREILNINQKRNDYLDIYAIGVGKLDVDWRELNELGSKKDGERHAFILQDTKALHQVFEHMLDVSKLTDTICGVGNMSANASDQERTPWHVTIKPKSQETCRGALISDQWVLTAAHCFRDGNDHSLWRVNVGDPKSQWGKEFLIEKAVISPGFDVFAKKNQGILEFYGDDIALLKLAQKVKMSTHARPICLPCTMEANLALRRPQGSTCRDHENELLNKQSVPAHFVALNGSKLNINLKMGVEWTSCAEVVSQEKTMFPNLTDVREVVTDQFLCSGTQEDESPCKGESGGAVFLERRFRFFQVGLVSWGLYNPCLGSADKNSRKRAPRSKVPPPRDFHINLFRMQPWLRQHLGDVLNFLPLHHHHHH
The description is as above. As to the method: as §1, §2

The target in experiment [4] is T3, recombinant cynomolgus (cyno) …. Nature of the experiment: binding kinetics (BLI presumed).
For experiment [5], the target named is T2, recombinant human complement C2 …. Nature of the experiment: ELISA.
The target in experiment [6] is T3, recombinant cynomolgus (cyno) …. Nature of the experiment: ELISA. Background: In an ELISA, binding on a coated surface is turned into a signal by an enzyme label.

B1: anti-C2 antibody 3.2 (antibody, IgG4, V domains shown)
VH: EVQLLESGGGLVQPGGSLRLSCAASGFTFRHYAMSWVRQAPGKGLEWVSLISGSGASTFYADSVKGRFTISRDNSENMLYLQMNSLRAEDTAVYYCAKDSLAVAGSEYFQHWGQGTLVTVSS
VL: SYVLTQAPSVSVAPGQTARITCGGNYFGGKSVHWYQQRPGQAPVLVVYDDSDRPSGIPERFSGSKSGNTATLAISRVEAGDEAAYYCQVYDTSSDHWVFGGGTKLTVL
notes: Recombinant; also called WT; "WT" 3.2
With B1, the “IC50, inhibition of sheep RBC lysis, 5% serum” value in experiment [1] came to 2.9 nM. For the same molecule, in experiment [2], the “Dissociation (%) pH 5.8” value came out at 10.4%. Besides, the “Dissociation (%) pH 5.8” value in experiment [3] turned out to be 14.5%. Also, in experiment [4], the Kd worked out at 0.126 nM, the dissociation rate constant (koff) came out at 5.82e-05 s⁻¹ and the kon amounted to 461000 M⁻¹ s⁻¹. Besides, the EC50 in experiment [5] was found to be 0.0504 nM. Also, the EC50 in experiment [6] was 0.0478 nM.

B2: anti-C2 antibody 69.44 (antibody, IgG4, V domains shown)
VH: QVQLVQSGAEVKKPGASVKVSCKASGYSFTTYYMYWVRQAPGQGLEWMGIITPSGGSTTYAQKFQDRVTMTRDASTTTVYMELSSLRSEDTAVYYCARGYEGSYGFDHWGQGTLVTVSS
VL: SYELTQPPSVSLSPGQTASITCSGDKLGNKYTCWYQQKPGQSPVLVIYQDNKRPSGIPERFSGSNSGNTATLTISGTQAMDEADYYCQTWDSSTAVFGGGTKLTVL
notes: Recombinant
With B2, the “IC50, inhibition of sheep RBC lysis, 5% serum” value in experiment [1] was 2.8 nM. Further, the “Dissociation (%) pH 5.8” value in experiment [2] was 2.45%; in experiment [3], 7.22%. In addition, the dissociation constant Kd in experiment [4] is 0.304 nM. Besides, in experiment [4], the koff worked out at 5.89e-05 s⁻¹. Moreover, the on-rate (kon) in experiment [4] was found to be 194000 M⁻¹ s⁻¹. In addition, the EC50 in experiment [5] came out at 0.0474 nM; in experiment [6], 0.0794 nM.

A word on the Kd: it is the free concentration of one partner at which half of the binding sites on the other are occupied at equilibrium, for simple one-to-one binding. Usually koff stands for the first-order rate constant of dissociation. As usually defined, the kon is a measure of how fast the partners come together. For orientation: EC50 means the concentration giving half of the maximal effect.

(Values after US20250376539A1 (KIRA PHARMACEUTICALS SUZHOU, published 2025).)
